In patent US20050287163A1, “Mycoplasma polypeptides” (priority 2002, published 2005):
“Also recorded” adds a separate entry of the source.

Legend:
[1] = test system: Mhyo membrane-induced [Ca2+]i increase in ciliated tracheal cells; assay: Protease pretreatment of Mhyo membrane, effect on membrane-induced [Ca2+]i increase; assay type: cell-based, porcine; conditions: pretreatment of the membrane for 8 hours, 37° C.
Description: FIG. 6 contains four graphs plotting [Ca^2+]i response in ciliated porcine tracheal cells inoculated with Mhyo membranes. Each trace indicates the [Ca^2+]i changes in each tracheal cell. The arrows indicate when administration occurred. (A) The membrane preparation (100 μg/mL) increased [Ca^2+]i. (B) Digestion with proteinase K blocked the membrane-induced increase in [Ca^2+]i. The membrane (100 μg/0.1 mL PBS) was incubated with proteinase K (2 μg) at 37° C. for 8 hours before it was applied to tracheal cells in 0.9 mL Krebs-Ringer bicarbonate (KRB) buffer. (C) Digestion with trypsin potentiated the membrane-induced increase in [Ca^2+]i. The membrane (100 μg/0.1 mL PBS) was incubated with trypsin (6 μg) at 37° C. for 30 minutes before it was applied to tracheal cells in 0.9 mL KRB. […] The soluble protein was prepared by subjecting the trypsinized membrane to ultracentrifigation (100,000× g, 60 minutes) to obtain the supernatant.
Mycoplasmas lack cell walls and have only one type of membrane, the plasma membrane (Razin S. (1993) Mycoplasma membranes as models in membrane research (Chapter 2), In: Subcellular Biochemistry. Vol 20: Mycoplasma Cell Membranes, edited by Rottem S, Kahane I. Plenum Press, New York. pp. 1-28). The Mhyo membrane was prepared by osmotic lysis of the organisms and tested to determine if it increased [Ca^2+]i in ciliated tracheal cells. […]

[2] = test system: tryptic Mhyo polypeptide fragment-induced [Ca2+]i increase in ciliated tracheal epithelia; assay: Soybean trypsin inhibitor on tryptic Mhyo polypeptide fragment-induced [Ca2+]i increase; assay type: cell-based, swine; conditions: inhibitor 10 U/mL, incubated with preparation 37° C. 10 minutes
Description: FIG. 14 is a graph plotting [Ca^2+]i increase in porcine ciliated tracheal cells incubated with tryptic Mhyo membrane preparation pretreated with a soybean trypsin inhibitor (TI). […] TI was incubated with the tryptic membrane preparation at 37° C. for 10 minutes prior to administration. […] Each trace depicts [Ca^2+]i changes in one cell.
(§1) According to a recent report, trypsin at 0.1 U/mL can increase [Ca^2+]i in guinea pig tracheal epithelia (Oshiro et al., Life Sci., 71:547-558 (2002)). Since the estimated trypsin concentration in the [Ca^2+]i experiments described herein is about 1 U/mL, we tested whether trypsin plays a role in the observed tryptic fragment-induced [Ca^2+]i increase.

[3] = test system: trypsin-induced [Ca2+]i increase in swine ciliated epithelia; assay: Soybean trypsin inhibitor on trypsin-induced [Ca2+]i increase; assay type: cell-based; conditions: inhibitor 10 U/mL; trypsin 10 U/mL
Text: as §1

Molecule	effect of protease pretreatment on membrane-induced [Ca2+]i increase [1]	effect on tryptic Mhyo polypeptide fragment-induced [Ca2+]i increase [2]	effect on tryptic Mhyo polypeptide fragment-induced [Ca2+]i increase ([2]; listed as TI)	effect on trypsin-induced [Ca2+]i increase [3]
proteinase K: proteolytic enzyme used to pretreat the membrane (protein, UniProt P06873 106-384, looked up) Proteinase K: AAQTNAPWGLARISSTSPGTSTYYYDESAGQGSCVYVIDTGIEASHPEFEGRAQMVKTYYYSSRDGNGHGTHCAGTVGSRTYGVAKKTQLFGVKVLDDNGSGQYSTIIAGMDFVASDKNNRNCPKGVVASLSLGGGYSSSVNSAAARLQSSGVMVAVAAGNNNADARNYSPASEPSVCTVGASDRYDRRSSFSNYGSVLDIFGPGTSILSTWIGGSTRSISGTSMATPHVAGLAAYLMTLGKTTAASACRYIADTANKGDLSNIPFGTVNLLAYNNYQA	blocked; also recorded: abolished			
soybean trypsin inhibitor: soybean trypsin inhibitor (protein, UniProt P01070 25-205, looked up) Trypsin inhibitor A: DFVLDNEGNPLENGGTYYILSDITAFGGIRAAPTGNERCPLTVVQSRNELDKGIGTIISSPYRIRFIAEGHPLSLKFDSFAVIMLCVGIPTEWSVVEDLPEGPAVKIGENKDAMDGWFRLERVSDDEFNNYKLVFCPQQAEDDKCGDIGISIDHDDGTRRLVVSKNKPLVVQFQKLDKESL		failed to block	failed to inhibit	inhibited
papain: proteolytic enzyme used to pretreat the membrane (protein, UniProt P00784 134-345, looked up) Papain: IPEYVDWRQKGAVTPVKNQGSCGSCWAFSAVVTIEGIIKIRTGNLNEYSEQELLDCDRRSYGCNGGYPWSALQLVAQYGIHYRNTYPYEGVQRYCRSREKGPYAAKTDGVRQVQPYNEGALLYSIANQPVSVVLEAAGKDFQLYRGGIFVGPCGNKVDHAVAAVGYGPNYILIKNSWGTGWGENGYIRIKRGTGNSYGVCGLYTSSFYPVKN	abolished			
